Patent US20050249698A1 (priority 2002, published 2005)

Assays:
Assay type in all cases: in vivo, Balb/c mice
normal mice [1] = experiment: Test 1: spleen weight
Method: (§1) The clean grade of the Balb/c mice, weighed from 16 to 18 g, were used and randomly grouped, 7-10 mice per group. The tests were carried out in two batches.
(§2) The mice were divided into 4 groups.
(§3) The mice in each group were sacrificed on the 14th day.
(§4) The detection indexes were as follows: • (1) The counts of the peripheral blood leucocytes (WBC), the peripheral blood lymphocytes (LY), red blood cells (RBCs) and the change of platelet were determined for each group on the first day (no drug was administered), the 5th, 8th, 10th, 12th and 14th day. • (2) The counts of marrow karyotes (BMNC) of the mice in each group and the change of the classification of the marrow were determined on the 14th day. • (3) The sections of the sternum of the mice in each group were determined on the 14th day. • (4) The weights of the spleens of the mice in each group and the sections of the […] were determined on the 14th day.

normal mice [2] = experiment: Test 1: pathologic observation of breastbone (sternum) sections; conditions: 14th day, Test 1, FIG. 3
Method: as §1, §2, §3, §4

normal mice [3] = experiment: Test 2: spleen weight
Method: as §1, §2
(§5) The mice in each group were sacrificed on the eleventh day.
(§6) The detection indexes were as follows: • (1) The counts of the peripheral blood leucocytes of the mice in each group were determined on the first day (no drug was administered), the 3rd, 5th, 7th, 9th and 11th day. • (2) The counts of marrow karyotes (BMNC) of the mice in each group were determined on the 11th day. • (3) The weights of the spleens of the mice in each group were determined on the 11th day.

normal mice [4] = experiment: Test 2: marrow karyote count of the thighbone; conditions: 11th day, Test 2, simultaneous administration; x±SE
Method: as §1, §2, §5, §6

normal mice [5] = experiment: Test 1: peripheral blood cell counts, sOGP for 5 days then sOGP and rhG-CSF co-administered
Method: as §1, §2, §3, §4

normal mice [6] = experiment: Test 1: pathologic observation of spleen sections; conditions: 14th day, Test 1, FIG. 4
Method: as §1, §2, §3, §4

normal mice [7] = experiment: Test 1: marrow karyote count and classification of the thighbone; conditions: 14th day, x±SE
Method: as §1, §2, §3, §4

[8] = Test 1, sOGP 5 days then co-administration, x±SE

B1: rhG-CSF: commercially available recombinant human granulocyte colony stimulating factor (protein, UniProt P09919 31-207, looked up)
Granulocyte …: TPLGPASSLPQSFLLKCLEQVRKIQGDGAALQEKLVSECATYKLCHPEELVLLGHSLGIPWAPLSSCPSQALQLAGCLSQLHSGLFLYQGLLQALEGISPELGPTLDTLQLDVADFATTIWQQMEELGMAPALQPTQGAMPAFASAFQRRAGGVLVASHLQSFLEVSYRVLRHLAQP
Normal mice [1]; 14th day, Test 1, x±SE
  spleen weight: 0.252 ± 0.007 g
Normal mice [1]; Test 1, Table 3
  spleen weight compared with the other two groups (control, sOGP): significantly higher
Normal mice [2]
  pathologic observation of bone marrow cells in breastbone section: the proliferation of the bone marrow cells and the ratios among the three cell lines were normal
Normal mice [3]; 11th day, Test 2, simultaneous administration, x±SE
  spleen weight: 0.244 ± 0.017 g
Normal mice [3]; Test 2, Table 5
  spleen weight compared with the other two groups (control, sOGP): significantly higher
Normal mice [4]
  karyote number/thighbone: 1.75 ± 0.12 ×10^7
Normal mice [5]; [8]
  % leucocyte granulocyte: 70.39 ± 1.54%
  % leucocyte lymphocyte: 29.61 ± 1.54%
Normal mice [5]; Test 1, x±SE
  leucocyte: 17.59 ± 1.59 ×10^6/ml
  platelet: 505.43 ± 35.34 ×10^6/ml
  red blood cell: 6.68 ± 0.10 ×10^9/ml
Normal mice [6]
  spleen section: matured granulocytes as share of the granulocytes: about 60%
  spleen section: megakaryocyte cell line: moderately proliferated
  spleen section: red matter: proliferated moderately
  spleen section: white matter: lightly to moderately shrunk
Normal mice [7]
  karyote/thighbone: 1.90 ± 0.13 ×10^7
Normal mice [7]; thighbone marrow
  marrow: early erythroblast: 2.50 ± 0.33%
  marrow: intermediate erythroblast: 12.13 ± 1.92%
  marrow: late erythroblast: 16.00 ± 2.11%
  marrow: lymphocyte, plasma cell: 19.38 ± 2.00%
  marrow: matured granulocyte: 30.83 ± 2.77%
  marrow: myelocyte, metamyelocyte: 11.00 ± 1.00%
  marrow: primitive granulocyte: 0.63 ± 0.36%
  marrow: promyelocyte: 1.88 ± 0.44%
